From patent US8680233B2, “Heteropeptides useful for reducing nonspecific adsorption” (Valorisation-Recherche, Limited Partnership, priority 2009, dated 2014)
Square brackets hold non-standard residues; d marks the D form. Ends that are not written are not given here. Mpa = O=C(O)CCS

Tests used:
Type in all cases: physicochemical
[1] = Advancing contact angle in PBS on peptide SAMs; conditions: average of four replicates
[2] = Surface concentration of the peptide monolayer on Au by SPR; conditions: peptide SAM on Au SPR sensor; average of four replicates
Method: The surface coverage for each monolayer was measured according to the change in response of the SPR sensor in PBS for the bare Au surface relative to the peptide-coated Au surface. To measure the formation of the monolayers, each SPR sensor was mounted on a custom-made SPR instrument in the Kretschmann configuration based on a dove prism with wavelength interrogation as previously described (Bolduc et al., 2009, supra). An Ocean Optics™ USB4000 fibre optic spectrometer ranging from 550 to 850 nm was used to acquire the spectral information processed with Matlab to obtain the SPR sensorgram. A 25 μL Teflon fluidic cell positioned on top of the SPR sensors was used to inject the solutions required to functionalize with the recognition element and detect the analytes of interest. The SPR response was acquired at a frequency of 1 Hz. The s-polarized reference was acquired in PBS buffer before monitoring a 5 minute baseline in p-polarization. PBS was replaced with crude bovine serum (76 mg/mL protein) for 20 minutes and rinsed with PBS for 5 minutes to quantify the amount of non-specifically adsorbed proteins.
The formation of monolayers on Au was measured to ensure that the peptide monolayers are indeed binding to the SPR sensor. The surface concentration of the monolayer provides a measurement of the number of molecules per square cm (i.e. the density of the monolayer at the surface). The surface concentration (Γ) of peptide-like self-assembled monolayers (SAMs) was characterized with the measurement of the SPR response before the formation of the SAMs and after their formation on the Au surface of the SPR sensor. The difference of SPR wavelength (λSPR) between these two measurements increases with the increasing surface concentration of the SAMs following the equation proposed by Jung et al. (Jung, L. S. et al. Langmuir 1998, 14: 5636): Γ=ρ(−0.5/d)ln(1−(ΔλSPRm^−1(ηSAM−ηPBS)^−1)) (eq. 1)

[3] = Secondary structure of peptide SAM by FT-IR (mid-IR amide band); conditions: peptide SAM on gold-coated SPR sensor
Method: Microscope slides (BK7, 22×22 mm) were coated with a 3 nm titanium (Ti) adhesion layer and a 50 nm gold (Au) layer (purity 99.99%, ESPI metals) using a Cressington™ 308R sputter coater. These Au-coated SPR slides were immersed for at least 16 h in a 5 mM peptide solution in absolute ethanol to form a well-ordered monolayer (Masson, J. F. et al. Talanta 2004, 64: 716). Four replicates were prepared for each 3-MPA-peptide. The SAM formed on the SPR sensors was extensively rinsed with DMF and ethanol and dried. The mid-IR spectrum of the peptide monolayers immobilized on the SPR sensors was measured in attenuated total reflectance (ATR). Mid-IR spectra were recorded using a BRUKER TENSOR® 27 equipped with a Ge-ATR module.
The 3D structure of the peptides as SAMs is observed with the amide band visible in FT-IR. Peptides adopting an α-helix configuration are showing a strong amide band at 1645 cm^−1, while peptides auto-assembling in the β-sheet configuration leads to a shifted amide at 1675 cm^−1. Every peptide structure investigated in Table 1 adopted an α-helix configuration except for 3-MPA-HHHDD-OH, as shown in FIG. 3.
(§1) Peptides adopt secondary conformation, which plays a significant role in their biological activity. For peptides in solution, the secondary conformation is measured with CD, while peptides immobilized on a surface can be analyzed with mid-IR spectroscopy of the amide bands (Duevel, R. V., Corn, R. M., 1992. Analytical Chemistry 64(4), 337-342; Sakurai, T. et al., 2006. Journal of Peptide Science 12(6), 396-402). As listed in Table II, the secondary structure of most peptides adopted an α-helical conformation, with the exception of 3-MPA-DSDSD-OH, which adopted an extended conformation. As noted above, most peptides in the form of 3-MPA-peptide-OH adopt an α-helical conformation. Generally, mid-IR and CD agreed in the determination of the structures on surfaces and in solution, with the exception of one peptide. […] No relationship between structure and nonspecific adsorption could be established.

[4] = Secondary structure of peptide in solution by CD
Method: as §1

3-MPA-DDDSS ([Mpa]DDDSS)
Contact angle in PBS θC_PBS [1]: 51.2 ° | Surface density ΔΓSAM [2]: 0.311 10^15 molecule/cm^2

3-MPA-DHDHD-OH ([Mpa]DHDHD-OH; SMILES O=C(O)C[C@H](NC(=O)[C@H](Cc1c[nH]cn1)NC(=O)[C@H](CC(=O)O)NC(=O)[C@H](Cc1c[nH]cn1)NC(=O)[C@H](CC(=O)O)NC(=O)CCS)C(=O)O)
Secondary Structure FT-IR (SAM) [3]: α | Secondary Structure CD (solution) [4]: α

3-MPA-SSSHH ([Mpa]SSSHH)
Contact angle in PBS θC_PBS [1]: 40.0 ° | Surface density ΔΓSAM [2]: 0.301 10^15 molecule/cm^2

3-MPA-LLHHDD-OH ([Mpa]LLHHDD-OH; SMILES CC(C)C[C@H](NC(=O)CCS)C(=O)N[C@@H](CC(C)C)C(=O)N[C@@H](Cc1c[nH]cn1)C(=O)N[C@@H](Cc1c[nH]cn1)C(=O)N[C@@H](CC(=O)O)C(=O)N[C@@H](CC(=O)O)C(=O)O)
Secondary Structure FT-IR (SAM) [3]: α | Secondary Structure CD (solution) [4]: α

3-MPA-GGHHDD-OH ([Mpa]GGHHDD-OH; SMILES O=C(O)C[C@H](NC(=O)[C@H](CC(=O)O)NC(=O)[C@H](Cc1c[nH]cn1)NC(=O)[C@H](Cc1c[nH]cn1)NC(=O)CNC(=O)CNC(=O)CCS)C(=O)O)
Secondary Structure FT-IR (SAM) [3]: α | Secondary Structure CD (solution) [4]: α

3-MPA-LHDLHD-OH ([Mpa]LHDLHD-OH; SMILES CC(C)C[C@H](NC(=O)CCS)C(=O)N[C@@H](Cc1c[nH]cn1)C(=O)N[C@@H](CC(=O)O)C(=O)N[C@@H](CC(C)C)C(=O)N[C@@H](Cc1c[nH]cn1)C(=O)N[C@@H](CC(=O)O)C(=O)O)
Secondary Structure FT-IR (SAM) [3]: α | Secondary Structure CD (solution) [4]: α

3-MPA-SHDSHD-OH ([Mpa]SHDSHD-OH; SMILES O=C(O)C[C@H](NC(=O)[C@H](Cc1c[nH]cn1)NC(=O)[C@H](CO)NC(=O)[C@H](CC(=O)O)NC(=O)[C@H](Cc1c[nH]cn1)NC(=O)[C@H](CO)NC(=O)CCS)C(=O)O)
Secondary Structure FT-IR (SAM) [3]: α-helical and α | Secondary Structure CD (solution) [4]: extended

3-MPA-LLLSS ([Mpa]LLLSS)
Contact angle in PBS θC_PBS [1]: 32.6 ° | Surface density ΔΓSAM [2]: 0.255 10^15 molecule/cm^2

3-MPA-LLLDD ([Mpa]LLLDD)
Contact angle in PBS θC_PBS [1]: 52.3 ° | Surface density ΔΓSAM [2]: 0.352 10^15 molecule/cm^2

3-MPA-GGGGD-OH ([Mpa]GGGGD-OH; SMILES O=C(O)C[C@H](NC(=O)CNC(=O)CNC(=O)CNC(=O)CNC(=O)CCS)C(=O)O)
Secondary Structure FT-IR (SAM) [3]: α | Secondary Structure CD (solution) [4]: α

3-MPA-DSDSD-OH ([Mpa]DSDSD-OH; SMILES O=C(O)C[C@H](NC(=O)[C@H](CO)NC(=O)[C@H](CC(=O)O)NC(=O)[C@H](CO)NC(=O)[C@H](CC(=O)O)NC(=O)CCS)C(=O)O)
Secondary Structure FT-IR (SAM) [3]: extended | Secondary Structure CD (solution) [4]: extended

3-MPA-LLLHH ([Mpa]LLLHH)
Contact angle in PBS θC_PBS [1]: 41.4 ° | Surface density ΔΓSAM [2]: 0.296 10^15 molecule/cm^2

3-MPA-DDDHH ([Mpa]DDDHH)
Contact angle in PBS θC_PBS [1]: 46.4 ° | Surface density ΔΓSAM [2]: 0.279 10^15 molecule/cm^2

3-MPA-SSSDD ([Mpa]SSSDD)
Contact angle in PBS θC_PBS [1]: 38.8 ° | Surface density ΔΓSAM [2]: 0.441 10^15 molecule/cm^2

3-MPA-HHHSS ([Mpa]HHHSS)
Contact angle in PBS θC_PBS [1]: 39.9 ° | Surface density ΔΓSAM [2]: 0.125 10^15 molecule/cm^2
